Source: patent WO2007030708A2 (dated 2007)

Biological target: T1, S-TNF, human TNFα fusion protein with an N-terminal S-Tag (human, UniProt P01375 77-233)
T1 construct: Made, expressed and purified by the applicants; not shown: 15 amino acid S-Tag peptide (Novagen)
Assay: indirect ELISA: sp55 from conditioned medium captured on Ni-NTA wells, S-TNF at 1 μg/mL, S-protein-HRP detection, absorbance at 370 nm

T1 sequence (P01375 77-233): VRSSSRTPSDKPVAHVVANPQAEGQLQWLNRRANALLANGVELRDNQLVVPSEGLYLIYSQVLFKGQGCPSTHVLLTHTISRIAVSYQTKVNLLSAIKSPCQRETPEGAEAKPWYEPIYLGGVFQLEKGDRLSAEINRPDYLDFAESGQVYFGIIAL

B1: sp55, soluble TNF receptor p55: ecto-domain of human TNFR-1 (residues 30-211) with C-terminal myc and His6 tags (receptor)
chain: DAAQPARRAVRSLVPHLGDREKRDSVCPQGKYIHPQNNSICCTKCHKGTYLYNDCPGPGQDTDCRECESGSFTASENHLRHCLSCSKCRKEMGQVEISSCTVDRDTVCGCRKNQYRHYWSENLFQCFNCSLCLNGTVHLSCQEKQNTVCTCHAGFFLRENECVSCSNCKKSLECTKLCLPQIENVKGTEDSGTTRGGPEQKLISEEDLNSAVDHHHHHH
notes: Used as conditioned medium of transfected 293T cells; also called p55FL-myc-his; p55L
- fold elevation in S-TNF binding over non-specific binding in control samples: 3 fold
